{"source": "patent US12049482B2", "about": "“Molecular switch-mediated control of engineered cells” (THE GENERAL HOSPITAL CORPORATION, priority 2017, dated 2024)", "molecules": {"B1": {"name": "CRBN: Native Homo sapiens CRBN polypeptide, SEQ ID NO: 6; positive control (protein, listed as Homo sapiens)", "chain": "MAGEGDQQDAAHNMGNHLPLLPAESEEEDEMEVEDQDSKEAKKPNIINFDTSLPTSHTYLGADMEEFHGRTLHDDDSCQVIPVLPQVMMILIPGQTLPLQLFHPQEVSMVRNLIQKDRTFAVLAYSNVQEREAQFGTTAEIYAYREEQDFGIEIVKVKAIGRQRFKVLELRTQSDGIQQAKVQILPECVLPSTMSAVQLESLNKCQIFPSKPVSREDQCSYKWWQKYQKRKFHCANLTSWPRWLYSLYDAETLMDRIKKQLREWDENLKDDSLPSNPIDFSYRVAACLPIDDVLRIQLLKIGSAIQRLRCELDIMNKCTSLCCKQCQETEITTKNEIFSLSLCGPMAAYVNPHGYVHETLTVYKACNLNLIGRPSTEHSWFPGYAWTVAQCKICASHIGWKFTATKKDMSPQKFWGLTRSALLPTIPDTEDEISPDKVILCL"}, "B2": {"name": "CRBN V388A: CRBN polypeptide with V388A substitution (protein, UniProt Q96SW2 1-442, looked up, variant V388A)", "Protein cereblon": "B1 chain with V388A"}, "B3": {"name": "minCRBN2: Minimal CRBN, amino acids 317-442 of CRBN, SEQ ID NO: 2 (protein)", "chain": "CTSLCCKQCQETEITTKNEIFSLSLCGPMAAYVNPHGYVHETLTVYKACNLNLIGRPSTEHSWFPGYAWTVAQCKICASHIGWKFTATKKDMSPQKFWGLTRSALLPTIPDTEDEISPDKVILCL"}, "B4": {"name": "minCRBN4: All CRBN sequences other than amino acids 187-260 (deletion of the DDB1-binding domain), SEQ ID NO: 4 (protein)", "chain": "MAGEGDQQDAAHNMGNHLPLLPESEEEDEMEVEDQDSKEAKKPNIINFDTSLPTSHTYLGADMEEFHGRTLHDDDSCQVIPVLPQVMMILIPGQTLPLQLFHPQEVSMVRNLIQKDRTFAVLAYSNVQEREAQFGTTAEIYAYREEQDFGIEIVKVKAIGRQRFKVLELRTQSDGIQQAKVQILPLREWDENLKDDSLPSNPIDFSYRVAACLPIDDVLRIQLLKIGSAIQRLRCELDIMNKCTSLCCKQCQETEITTKNEIFSLSLCGPMAAYVNPHGYVHETLTVYKACNLNLIGRPSTEHSWFPGYAWTVAQCKICASHIGWKFTATKKDMSPQKFWGLTRSALLPTIPDTEDEISPDKVILCL"}, "B5": {"name": "minCRBN1: Minimal CRBN, amino acids 339-442 of CRBN (including the TBD), SEQ ID NO: 1 (protein)", "chain": "SLSLCGPMAAYVNPHGYVHETLTVYKACNLNLIGRPSTEHSWFPGYAWTVAQCKICASHIGWKFTATKKDMSPQKFWGLTRSALLPTIPDTEDEISPDKVILCL"}}, "key": {"CRBN [1]": {"molecular_target": "T1, CRBN (Homo sapiens, UniProt Q96SW2)", "conditions": "in vitro; cited from earlier work"}, "CRBN [2]": {"molecular_target": "T1, CRBN", "test": "Pomalidomide-dependent degradation of IKZF3 degron with A153 substitutions", "assay_type": "cell-based", "parameters": "endogenous in cells", "conditions": "wtCRBN-expressing cells, pomalidomide dose-response", "procedure": "(§1) Transduced cells were incubated with a range of Pomalidomide concentrations or DMSO for 20 hours. Cells were analyzed by flow cytometry for eGFP and mCherry fluorescence. 1000 mCherry+ cells were analyzed per sample, and the geometric mean of the per-cell eGFP/mCherry ratio was calculated in Flowjo. In Pomalidomide dose titration studies, the EC50 was calculated by non-linear regression in Prism. Experiments were performed in triplicate. In some cases cell surface protein expression was assayed in parallel with the above reporter assay; cells were stained with anti-CD28-BV421 antibody (BD Biosciences 562613) at a 1:50 dilution in FACS buffer (PBS+2% FCS+2 mM EDTA) for 10 minutes on ice. Cells were washed with FACS buffer and analyzed by flow cytometry."}, "K562-CD19 cells": {"test_system": "K562-CD19 cells", "test": "Jurkat degron-tagged CAR-T co-culture with K562-CD19 (Myc-tag, CD69, IL2)", "assay_type": "cell-based, human", "procedure": "100,000 CAR-T Jurkat cells were co-cultured with 20,000 K562 or K562-CD19 cells for 18 hours.\nJurkat T cells lentivirally transduced with the genetic components described herein were co-cultured for 24 hours with K562 cells (human blast crisis Chronic Myeloid Leukemia cell line) lentivirally transduced with an expression vector encoding CD19 (referred to as K562-CD19) (G&P Biosciences LTV-CD19) or isogenic K562 cells lacking the target antigen. Both K562-CD19 and K562 cell lines were engineered to express homogenous high level mCherry expression via transduction with the Jenner lentivirus, allowing discrimination of K562 and Jurkat cells by flow cytometry. Unless otherwise specified, 50,000 Jurkat cells were co-cultured with 10,000 K562 cells in 110 ul of RPMI supplemented with Pen/Strep and 10% fetal calf serum for 24 hours. The supernatant was then harvested for cytokine secretion assays and IL2 concentration in the supernatant was performed according to manufacturer specifications (BD Biosciences 555190). The cells were analyzed by flow cytometry. Expression of the early activation marker CD69 (BioLegend 310910), myc tagged cell surface proteins (Cell Signaling Technologies 2233S), and fluorescent protein markers were assessed."}, "CRL4^CRBN": {"molecular_target": "T2, CRL4^CRBN (Homo sapiens, UniProt Q96SW2)", "T2 construct": "endogenous in cells; host or cells: Jurkat T cells (ligase endogenous; degron-eGFP reporters lentivirally transduced)", "T2 sequence (Q16531 whole entry partner, one chain of several, the tested form may be a part)": "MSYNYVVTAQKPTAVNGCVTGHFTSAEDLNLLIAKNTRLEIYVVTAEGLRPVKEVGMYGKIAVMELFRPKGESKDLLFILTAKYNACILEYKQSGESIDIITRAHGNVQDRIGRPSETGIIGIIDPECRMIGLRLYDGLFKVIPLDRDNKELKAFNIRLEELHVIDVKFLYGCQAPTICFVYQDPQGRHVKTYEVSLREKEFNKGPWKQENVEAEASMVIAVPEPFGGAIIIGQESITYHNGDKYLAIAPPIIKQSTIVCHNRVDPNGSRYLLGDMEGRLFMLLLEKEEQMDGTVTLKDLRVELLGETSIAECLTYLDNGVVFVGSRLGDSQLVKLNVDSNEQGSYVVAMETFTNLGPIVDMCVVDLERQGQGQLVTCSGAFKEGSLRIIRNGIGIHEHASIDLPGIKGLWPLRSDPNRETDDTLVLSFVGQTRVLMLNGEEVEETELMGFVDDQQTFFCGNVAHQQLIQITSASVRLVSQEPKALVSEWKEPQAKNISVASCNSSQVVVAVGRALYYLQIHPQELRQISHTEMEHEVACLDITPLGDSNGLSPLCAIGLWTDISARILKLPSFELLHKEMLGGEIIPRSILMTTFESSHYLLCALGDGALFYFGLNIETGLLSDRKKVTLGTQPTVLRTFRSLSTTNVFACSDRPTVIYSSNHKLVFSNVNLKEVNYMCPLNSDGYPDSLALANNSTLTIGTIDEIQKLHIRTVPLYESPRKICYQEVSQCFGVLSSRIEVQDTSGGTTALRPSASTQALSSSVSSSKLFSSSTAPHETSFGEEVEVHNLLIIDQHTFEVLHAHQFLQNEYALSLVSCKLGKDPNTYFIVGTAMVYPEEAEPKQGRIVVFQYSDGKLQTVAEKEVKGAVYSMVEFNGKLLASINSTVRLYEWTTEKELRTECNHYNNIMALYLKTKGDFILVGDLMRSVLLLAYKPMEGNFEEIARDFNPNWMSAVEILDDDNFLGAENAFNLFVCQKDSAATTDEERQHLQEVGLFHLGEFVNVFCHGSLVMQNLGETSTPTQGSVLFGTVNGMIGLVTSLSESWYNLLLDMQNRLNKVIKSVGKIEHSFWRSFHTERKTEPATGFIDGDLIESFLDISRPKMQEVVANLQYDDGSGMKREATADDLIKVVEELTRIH", "T2 sequence (Q13619 whole entry partner, one chain of several, the tested form may be a part)": "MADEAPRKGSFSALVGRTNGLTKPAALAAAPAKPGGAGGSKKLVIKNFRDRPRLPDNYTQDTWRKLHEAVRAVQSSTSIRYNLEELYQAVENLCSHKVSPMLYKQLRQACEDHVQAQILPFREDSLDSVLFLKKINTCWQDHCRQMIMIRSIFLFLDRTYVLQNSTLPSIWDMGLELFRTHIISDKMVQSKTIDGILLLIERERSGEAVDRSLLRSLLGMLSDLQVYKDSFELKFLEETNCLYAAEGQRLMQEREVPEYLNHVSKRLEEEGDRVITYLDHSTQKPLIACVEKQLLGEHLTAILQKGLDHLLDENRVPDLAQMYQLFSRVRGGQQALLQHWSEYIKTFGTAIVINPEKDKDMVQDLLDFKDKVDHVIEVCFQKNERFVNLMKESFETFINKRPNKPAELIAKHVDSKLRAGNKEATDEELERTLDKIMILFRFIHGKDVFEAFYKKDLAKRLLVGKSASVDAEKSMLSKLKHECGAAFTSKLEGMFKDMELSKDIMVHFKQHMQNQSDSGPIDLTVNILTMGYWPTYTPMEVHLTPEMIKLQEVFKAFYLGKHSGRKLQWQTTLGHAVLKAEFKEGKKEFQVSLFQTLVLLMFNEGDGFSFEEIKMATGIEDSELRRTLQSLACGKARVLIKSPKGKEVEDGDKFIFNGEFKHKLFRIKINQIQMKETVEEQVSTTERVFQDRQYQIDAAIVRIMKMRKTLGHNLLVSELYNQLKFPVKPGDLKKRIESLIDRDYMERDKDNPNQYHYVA", "T2 sequence (P62877 whole entry partner, one chain of several, the tested form may be a part)": "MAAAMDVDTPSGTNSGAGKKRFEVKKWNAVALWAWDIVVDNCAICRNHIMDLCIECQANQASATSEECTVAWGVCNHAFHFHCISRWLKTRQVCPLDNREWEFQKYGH", "T2 sequence (Q9UKT9 130-189 partner limits assumed, one chain of several)": "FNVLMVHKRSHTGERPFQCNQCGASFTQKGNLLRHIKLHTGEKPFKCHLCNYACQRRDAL", "test": "GFP/mCherry reporter assay for degradation of degron-eGFP fusion proteins in Jurkat T cells", "assay_type": "cell-based", "procedure": "First, the FMC63 anti-CD19 scFv was exchanged for the CD28 Ig-like V-type extracellular domain. […] Experiments were performed in triplicate.\nas §1, with “Transduced cells were incubated with a range of Pomalidomide concentrations or DMSO for 20 hours.” left out\nFirst, the FMC63 anti-CD19 scFv was exchanged for the CD28 Ig-like V-type extracellular domain."}, "IKZF3aa130-189": {"test_system": "IKZF3aa130-189", "sequence (Q9UKT9 130-189 limits assumed, one chain of several)": "as the sequence (Q9UKT9 130-189 partner limits assumed, one chain of several) above", "test": "BRET assay, dimerization of IKZF3aa130-189 with CRBN or minCRBN variants", "assay_type": "cell-based, human", "conditions": "pomalidomide dose-response", "procedure": "Specifically, CRBN deletion variants were engineered to retain binding to Pom/IKZF3 but not DDB1/CUL4. Four deletion variants were generated in CRBN that removed the DDB1-binding domain, as shown in the middle image (NTD is the N-terminal domain; LLP1 is Lon-like protease domain 1 (split into LLP1-N and LLP1-C regions); TBD is the Thalidomide binding domain). At middle, BRET assays were performed upon 293T cells harboring bialleleic CRISPR/Cas9 disruption of endogenous CRBN (293T-CRBNΔe5), to assess dimerization between IKZF3aa130-189 and CRBN or minCRBN variants (dose-response data shown are CRBN, minCRBN1, minCRBN2, minCRBN3 and minCRBN4). […] Pomalidomide-dependent dimerization was observed between IKZF3aa130-189-HaloTag and CRBN-Nanoluciferase (NLuc) or minCRBN2-4-NLuc. […] 1 day after transfection, cells were exposed to 1 μM pomalidomide for the number of hours indicated and GFP and mCherry fluorescence was measured by flow cytometry (eGFPmCherry levels were detected as 0.5 or less for the CRBN trace).\n(§2) 293T cells were co-transfected with pFC14K and pFC32K plasmids expressing IKZF3-HaloTag and CRBN-Nanoluciferase fusion proteins and incubated overnight. Cells were then trypsinized and seeded into 96 well plates, at 40,000 cells per well. The BRET assay was performed per manufacturer's instructions (Promega™). In brief, cells were incubated for 2 hours with varying concentrations of Pomalidomide or DMSO, 10 μM MG132, and 100 nM HaloTag NanoBRET 618 Ligand. NanoBRET Nano-Glo substrate was added and donor (460 nm) and acceptor (618 nm) emission were measured within 10 minutes (EnVision, Perkin Elmer). Mean corrected milliBRET units (mBU) was calculated.\nTested forms of minimal CRBN included minCRBN1, minCRBN2, minCRBN3 and minCRBN4, each of which were aligned against the wild-type CRBN (FIG. 1; all tested minCRBNs lacked the DDB1-binding domain—minCRBN1 comprised amino acids 339-442 of CRBN (including the TBD); minCRBN2 comprised amino acids 317-442 of CRBN (including TBD and an N-terminal extended sequence relative to minCRBN1); minCRBN3 included all CRBN sequence other than amino acids 194-207 (deletion of the DDB1-binding domain); and minCRBN4 included all sequences other than amino acids 187-260 (deletion of the DDB1-binding domain))."}, "IKZF3 degron-GFP": {"test_system": "IKZF3 degron-GFP", "sequence (Q9UKT9 130-189 limits assumed, one chain of several)": "as the sequence (Q9UKT9 130-189 partner limits assumed, one chain of several) above", "test": "eGFP/mCherry reporter, IKZF3 degron degradation with co-transfected CRBN or minCRBN1-4 in 293T-CRBNΔe5 cells", "assay_type": "cell-based, human", "conditions": "1 μM pomalidomide, time course in hours, 293T-CRBNΔe5 cells", "procedure": "Specifically, CRBN deletion variants were engineered to retain binding to Pom/IKZF3 but not DDB1/CUL4. Four deletion variants were generated in CRBN that removed the DDB1-binding domain, as shown in the middle image (NTD is the N-terminal domain; LLP1 is Lon-like protease domain 1 (split into LLP1-N and LLP1-C regions); TBD is the Thalidomide binding domain). At middle, BRET assays were performed upon 293T cells harboring bialleleic CRISPR/Cas9 disruption of endogenous CRBN (293T-CRBNΔe5), to assess dimerization between IKZF3aa130-189 and CRBN or minCRBN variants (dose-response data shown are CRBN, minCRBN1, minCRBN2, minCRBN3 and minCRBN4). […] 1 day after transfection, cells were exposed to 1 μM pomalidomide for the number of hours indicated and GFP and mCherry fluorescence was measured by flow cytometry (eGFPmCherry levels were detected as 0.5 or less for the CRBN trace).\nTransduced cells were incubated with a range of Pomalidomide concentrations or DMSO for 20 hours. Cells were analyzed by flow cytometry for eGFP and mCherry fluorescence. 1000 mCherry+ cells were analyzed per sample, and the geometric mean of the per-cell eGFP/mCherry ratio was calculated in Flowjo. In Pomalidomide dose titration studies, the EC50 was calculated by non-linear regression in Prism. […] Cells were washed with FACS buffer and analyzed by flow cytometry."}, "IKZF3 A153M": {"test_system": "IKZF3 A153M", "sequence (Q9UKT9 130-189 A153M limits assumed)": "as the sequence (Q9UKT9 130-189 partner limits assumed, one chain of several) above, with A24M counted along it", "test": "BRET, IKZF3 A153 substitutions with CRBN, CRBN V388A or CRBN I371A", "assay_type": "cell-based, human", "conditions": "293T cells, 2 hours", "procedure": "as §2"}}, "note": "Numbering of substitutions follows the chain as printed. Names and notes keep the numbering of the source. “Also recorded” adds a separate entry of the source."}
{"molecule": "Nc1cccc2c1C(=O)N(C1CCC(=O)NC1=O)C2=O", "note": "(stereo not shown) [pomalidomide, Pomalidomide]", "values": [{"measurement": "binding to CRBN", "setting": "CRBN [1]", "result": "binds to CRBN in vitro"}]}
{"molecule": "O=C1CCC(N2C(=O)c3ccccc3C2=O)C(=O)N1", "note": "(stereo not shown) [thalidomide, Thalidomide]", "values": [{"measurement": "binding to CRBN", "setting": "CRBN [1]", "result": "binds to CRBN in vitro"}]}
{"molecule": "A153D: IKZF3 degron polypeptide, amino acids 130-189 A153D, SEQ ID NO: 43", "values": [{"measurement": "pomalidomide-dependent degradation of substituted IKZF3 degron", "setting": "CRBN [2]", "result": "most effective at disrupting pomalidomide-dependent IKZF3 degron degradation"}]}
{"molecule": "IKZF3 A153M: IKZF3 degron polypeptide, amino acids 130-189 A153M, SEQ ID NO: 36", "values": [{"measurement": "pomalidomide-dependent degradation of substituted IKZF3 degron", "setting": "CRBN [2]", "result": "disrupted binding and degradation by CRBN"}]}
{"molecule": "d913: Hybrid degron, IKZF3 aa 130-145 + ZFP91 aa 400-410 + IKZF3 aa 157-189, SEQ ID NO: 95 (FNVLMVHKRSHTGERPLQCEICGFTCRQKGNLLRHIKLHTGEKPFKCHLCNYACQRRDAL)", "values": [{"measurement": "drug control over CAR protein expression, activation and IL2 secretion", "setting": "K562-CD19 cells; Jurkat CAR-T with K562 or K562-CD19, 18 hours", "result": "more robust control over CAR protein expression, activation, and cytokine secretion than the endogenous IKZF3 degron"}, {"measurement": "cell surface CAR expression (anti-Myc tag)", "setting": "K562-CD19 cells; Jurkat T cells, no drug (tonic)", "result": "lower tonic CAR cell surface protein abundance versus the control CAR"}]}
{"molecule": "degron: IKZF3 degron polypeptide, amino acids 130-189, SEQ ID NO: 5, as eGFP fusion", "values": [{"measurement": "degradation of degron-eGFP protein", "setting": "CRL4^CRBN; by 1 hour after addition of 1 μM pomalidomide", "result": "~90", "unit": "%"}, {"measurement": "EC50", "setting": "CRL4^CRBN; nM pomalidomide, Jurkat T cells", "result": 0.4, "unit": "nM"}]}
{"molecule": "B1", "values": [{"measurement": "pomalidomide-dependent dimerization with IKZF3 degron (mBU)", "setting": "IKZF3aa130-189", "result": "pomalidomide-dependent interactions"}, {"measurement": "eGFP/mCherry level of IKZF3 degron-GFP reporter", "setting": "IKZF3 degron-GFP", "result": "≤ 0.5"}, {"measurement": "eGFP/mCherry level of IKZF3 degron-GFP reporter", "setting": "IKZF3 degron-GFP; listed as wild-type CRBN", "result": "successfully promoted degradation of the IKZF3 degron"}]}
{"molecule": "B2", "values": [{"measurement": "pomalidomide-dependent binding with IKZF3 A153M", "setting": "IKZF3 A153M; 10 μM MG132, 1 μM pomalidomide and dose-response", "result": "restored binding affinity with IKZF3 A153M; also recorded: greatest restoration of pomalidomide-dependent binding"}, {"measurement": "mBU fold change at 1 μM Pomalidomide/DMSO", "setting": "IKZF3 A153M; 10 μM MG132, mutant versus wild type CRBN", "result": "increased the mBU fold change versus wild type CRBN"}]}
{"molecule": "B3", "values": [{"measurement": "pomalidomide-dependent dimerization with IKZF3 degron (mBU)", "setting": "IKZF3aa130-189", "result": "pomalidomide-dependent interactions"}]}
{"molecule": "B4", "values": [{"measurement": "pomalidomide-dependent dimerization with IKZF3 degron (mBU)", "setting": "IKZF3aa130-189", "result": "pomalidomide-dependent interactions"}]}
{"molecule": "B5", "values": [{"measurement": "pomalidomide-dependent dimerization with IKZF3 degron (mBU)", "setting": "IKZF3aa130-189", "result": "dose-dependence was only not observed"}]}
